Reference: patent US20240139351A1, “TARGETING SYSTEM WITH IMPROVED UPTAKE” (CORETAG IP B.V., priority 2021, published 2024)

Tests used:
[1] = Clearance of cyanines in the human body; conditions: in vivo
Source text: (§1) The present targeting molecule is very selective and very specific in binding to necrotic cells. […] For the present invention three specific cyanines are selected, namely 800CW, 800RS, and ZW-800. These molecules are found to have a high affinity towards the intracellular proteins, including tubulin and actin. […] As a result, very low concentrations c.q. amounts of the present system may be used to provide advantageous effects thereof. It is noted that apoptosis specific probes, in contrast to necrosis specific probes will also target healthy tissue as apoptosis is involved in normal tissue turnover. The present cyanine is attached to a second entity, namely a linker, wherein the linker may even be a relatively small molecule, the linker being attached to the present drug uptake improving molecule, wherein the drug uptake improving molecule is selected from aromatic compounds comprising a residue or group selected from amino acid residues, which latter molecule is attached to the chelator, wherein the chelator is typically selected from DOTA and NOTA comprising compounds (DOTA: 1,4,7,10-Tetraazacy-clododecane-1,4,7,10-tetraacetic acid and NOTA: 1,4,7-triazacyclononane-N,N′,N″-tri-acetic acid). Attached to the chelator a further entity may be attached, such as a radionuclide. […]

[2] = system: intracellular proteins, including tubulin and actin; assay: Affinity of cyanines towards intracellular proteins; type: binding
Source text: as §1

NCI-H69 tumor = assay: Biodistribution of 111In-radiolabeled compounds in mice bearing NCI-H69 tumors
Source text: CORETAG has evaluated the radiolabeling, in vitro binding, pharmacology in tumor animal model, and PET or SPECT imaging with an overall expertise in targeted radiotherapy and companion imaging diagnostic. The aim of this part is to evaluate the biodistribution of the 4 compounds below and compare it to the biodistribution of DOT-AGA-PEG4-CW800 (prior art).
The injected activity was about 9.0 MBq.
The NCI-H69 cell line used is a human small cell lung cancer carcinoma that was
Tumor cells were grown at 37° C. in a humidified atmosphere (5% CO2, 95% air). The culture medium will be RPMI1640 medium containing 10% fetal calf serum. NCI-H69 tumor cells are growing as a cell suspension. For experimental use, tumor cells were harvested by centrifugation. Cells were counted and viability assessed using a 0.25% try-pan blue exclusion assay.
Thirty-one (31) healthy female SWISS Nude (Crl:NU(Ico)-Foxn1nu) mice, 6-8 weeks old at reception, were obtained from Charles River. The injection volume was 100 μl.
Tumors were induced by subcutaneous injection of 2×10^7 NCI-H69 cells in 200 μL of RPMI 1640 into the right flank of 31 female animals in the axis of the heart. NCI-H69 tumor cell implantation was performed 24 to 72 hours after a whole-body irradiation with a gamma-source (2 Gy, 60 Co, BioMep, France). The day of tumor induction is considered as D0.
All imaging experiments were performed on a 4.7T horizontal magnet (PharmaS-can, Bruker Biospin GmbH, Germany) equipped with an actively shielded gradient system. All the MR images were acquired under ParaVision (PV5.1, Bruker Biospin).

[3] = Aqueous solution concentration; type: physicochemical

CC1(C)C(/C=C/C2=C(Oc3ccc(S(=O)(=O)O)cc3)C(=C/C=C3/N(CCCCS(=O)(=O)O)c4ccc(S(=O)(=O)[O-])cc4C3(C)C)/CCC2)=[N+](CCCCCC(=O)O)c2ccc(S(=O)(=O)O)cc21 [800CW]
clearance in the human body [1]: cleared in the human body specifically well | affinity towards the intracellular proteins [2]: high affinity

CC1(C)C(=CC=C2CCCC(C=CC3=[N+](CCC[N+](C)(C)C)c4ccc(S(=O)(=O)O)cc4C3(C)C)=C2Oc2ccc(CCC(=O)O)cc2)N(CCC[N+](C)(C)C)c2ccc(S(=O)(=O)O)cc21 [ZW-800]
clearance in the human body [1]: cleared in the human body specifically well | affinity towards the intracellular proteins [2]: high affinity

DOTAGA-LYS-(PEG4-CW800)2 [component 5]
Uptake in all organs (NCI-H69 tumor; all organs): increased | concentration present (assessment) (NCI-H69 tumor; mouse, in vivo): too high concentration | uptake in tumor (NCI-H69 tumor; tumor): higher uptake

IR800CW-PEG4-NaI-DOTA-GA [component 6]
Radioactivity in blood (comparison between components) (NCI-H69 tumor; mouse, in vivo): higher | dosage to all organs tested compared to components 1-4 (NCI-H69 tumor; mouse, in vivo): about twice as high | dosage to the tumor compared to components 1-4 (NCI-H69 tumor; mouse, in vivo): about twice as high | uptake in tumor (NCI-H69 tumor; mouse, in vivo): higher uptake | Remaining radioactivity in whole body after 3 h (NCI-H69 tumor; mouse, in vivo, 3 h): higher | forms an aqueous solution [3]: > 1 mM
